{"source": "patent US8173133B2", "about": "“Acyl pseudodipeptides which carry a functionalized auxiliary arm” (OM Pharma, priority 1999, dated 2012)", "molecules": {"B1": {"name": "Ovalbumin: antigen alone (ovalbumin, Fluka AG) (protein, UniProt P01012 2-386, looked up)", "Ovalbumin": "GSIGAASMEFCFDVFKELKVHHANENIFYCPIAIMSALAMVYLGAKDSTRTQINKVVRFDKLPGFGDSIEAQCGTSVNVHSSLRDILNQITKPNDVYSFSLASRLYAEERYPILPEYLQCVKELYRGGLEPINFQTAADQARELINSWVESQTNGIIRNVLQPSSVDSQTAMVLVNAIVFKGLWEKAFKDEDTQAMPFRVTEQESKPVQMMYQIGLFRVASMASEKMKILELPFASGTMSMLVLLPDEVSGLEQLESIINFEKLTEWTSSNVMEERKIKVYLPRMKMEEKYNLTSVLMAMGITDVFSSSANLSGISSAESLKISQAVHAAHAEINEAGREVVGSAEAGVDAASVSEEFRADHPFLFCIKHIATNAVLFFGRCVSP"}, "B2": {"name": "OM-197-FV-ovalbumin: OM-197-FV7 coupled to ovalbumin by reductive amination (conjugate, UniProt P01012 2-386, looked up)", "Ovalbumin": "B1 Ovalbumin", "modifications": "OM-197-FV coupled by reductive amination"}, "B3": {"name": "IFN-γ: γ IFN (1000 U/ml) stimulus (protein, UniProt P01579 24-161, looked up)", "Interferon gamma": "QDPYVKEAENLKKYFNAGHSDVADNGTLFLGILKNWKEESDRKIMQSQIVSFYFKLFKNFKDDQSIQKSVETIKEDMNVKFFNSNKKKRDDFEKLTNYSVTDLNVQRKAIHELIQVMAELSPAAKTGKRKRSQMLFRG"}}, "key": {"murine macrophage cells": {"test_system": "murine macrophage cells", "test": "nitric oxide production by murine macrophage cells (Griess)", "type": "cell-based, C57/BL6 mice", "from_the_text": "Six-week old male C57/BL6 mice are killed by CO2 inhalation. The hip, femur, tibia and posterior appendage bones are removed. The bone marrow is extracted from the bone lumen by injecting Dulbecco's Modified Eagle Medium (DH medium) from the end portions which had been excised. The stem cells are washed and resuspended (approximate cell concentration 4000 cells/ml) in DH medium supplemented with 20% equine serum (SH) and 30% L929 cell supernatant. L929 is a murine fibroblast cell line the supernatant fluid of which is rich in growth factor for macrophage cells (M-CSF). The cell suspension is divided into Petri dishes which are incubated for 8 days in an incubator at 37° C. under 8% CO2 and a moisture saturated atmosphere.\nAfter 8 days, the stem cells have differentiated into mature macrophage cells. The macrophage cells are scraped off by rapid cooling, washed and resuspended in DH medium supplemented with 5% foetal calf serum (FCS), amino acids and antibiotics. The cell density is adjusted to 700 000 cells/ml.\nProducts previously dissolved in DH medium supplemented with 5% FCS, amino acids and antibiotics are serially diluted directly in microtiter plates. The products are tested in triplicates and each microtiter plate comprises a negative control containing plain medium. The final volume in each well is 100 μl.\n100 μl of cell suspension are added to diluted solutions of such products and the cells are incubated for 22 hours in an incubator at 37° C., under 8% CO2 and a moisture saturated atmosphere. At the end of the incubation period with the products, 100 μl of supernatant are withdrawn and the nitrite concentration is determined by running a Griess reaction.\n100 μl of Griess reagent (5 mg/ml of sulfanilamide+0.5 mg/ml of N-(1-naphtylethylene diamine hydrochloride)) in 2.5% aq. phosphoric acid, are added to each well. The microtiter plates are read with a spectrophotometer at 562 nm wavelength against a reference sample at 690 nm. The nitrite concentration is proportional to nitric oxide content being formed. The nitrite content is determined based on a standard curve.\nThe results are given as mean value±standard deviation and plotted as a dose versus response curve.\nFrom this dose versus response curve, 3 curve variables are computed:\nMax: maximum curve amplitude and corresponding concentration\nEC50: concentration corresponding to 50% of maximum amplitude\nMin: lowest concentration inducing a significant proliferation corresponding to the blank±3× standard deviation value\nConcentration values corresponding to EC50 and Min are determined from line segments joining different points on the curve.\nIf the curve has no plateau phase but an ascending configuration for the highest concentration being tested, a “>” sign is shown before “Max” and “EC50” values."}, "[1]": {"test_system": "human peripheral blood mononuclear cells", "test": "α TNF production by human peripheral blood mononuclear cells", "type": "cell-based", "conditions": "18 hours", "procedure": "(§1) Mononuclear cells of peripheral blood are recovered from buffy coats of 6 healthy donors. Such buffy coat cells are resuspended and mononuclear cells are isolated by centrifugation on a Ficoll-Paque gradient (Amersham Pharmacia). Purified mononuclear cells are resuspended into RPMI-1640 medium supplemented with 10% FCS, antibiotics, mercaptoethanol and L-glutamine. Cell concentration is adjusted to 2×10^6 viable cells/ml\n100 μl of each one of these solutions of acyl dipeptide-like compounds bearing an accessory functional side chain spacer, diluted 100-, 10- or 1-fold in RPMI medium 1640, are dispensed into a microtiter plate. Samples are tested in triplicates, and each microtiter plate includes a negative control made up of plain medium. Dilutions of E. coli LPS (ranging grom 1 to 0.00001 μg/ml) are used as a positive control.\n100 μl of the cell suspension are added to each well containing product dilute solutions or control. Cells are incubated with the products for 18 hours in an incubator at 37° C., under 5% CO2 and a moisture saturated atmosphere.\nAt the end of the incubation period, microtiter plates are centrifuged, and the supernatant fluids are pooled and frozen at −80° C. as aliquots until time of ELISA assay.\nConcentration of α TNF secreted by mononuclear cells is determined by chemiluminescent ELISA (QuantiGlo #QTAOO R&D kit). 4-fold supernatant fluid dilutions are dispensed into each well of the microtiter plate to which anti-αTNF antibodies are bound. The microtiter plate is incubated for 4 hours at room temperature. After washing, peroxidase-conjugated anti-human a TNF antibody is added. Following a 2 hour incubation period and thorough washing, a chemiluminescent substrate is added and chemilunescence is read after 20 minutes. α TNF content in the supernatant fluid is determined with respect to a standard curve covering the 7000 to 0.7 pg/ml range.\nResults are expressed in pg/ml of α TNF produced. Results derive from an experiment representative of acyl-dipeptide-like compound activity"}, "[2]": {"test_system": "human peripheral blood mononuclear cells", "test": "inhibition of E. coli LPS-induced α TNF production in human peripheral blood mononuclear cells", "type": "cell-based", "conditions": "product 10 μg/ml", "procedure": "as §1, with “cells/ml.” for “cells/ml”\nProduct mediated Inhibition is determined by preincubating those products with mononuclear cells, and adding, 1 hour later, serially diluted solutions of LPS capable of inducing α TFN production. […] E. coli LPS is serially diluted (10-fold dilution) to be in the range of 1 to 0.00001 μg/ml\n50 μl of 10 μg/ml dilute product solutions in RPMI 1640 medium are dispensed into a microtiter plate. Each assay (10 μg/ml product concentration+dilute E. coli LPS) is run in triplicates and each microtiter plate includes a negative control comprised of plain medium. LPS-induced α TNF production (without inhibitor) is determined by adding E. coli LPS dilutions to RPMI medium.\n100 μl of the cell suspension are added to each well containing dilutions of either product or control. Cells are incubated with the products for 1 hour in an incubator at 37° C., under 5% CO2 and a moisture saturated atmosphere.\nAt the end of the pre-incubation period, 50 μl of serially diluted solutions of E. coli LPS are added. Incubation of mononuclear cells with the product and LPS is extended for 18 hours. At the end of the cell activation period, the microtiter plates are centrifuged, and the supernatants are pooled and frozen at −80° C. as aliquots until time of ELISA assay.\nConcentration of αTNF secreted by mononuclear cells is determined by chemiluminescent ELISA (QuantiGlo #QTAOO R&D kit). 4-fold dilutions of supernatant fluid are dispensed into each well of the microtiter plate to which anti-human αTNF antibodies are bound. The microtiter plate is incubated for 4 hours at room temperature. After washing, peroxidase-conjugated anti-human αTNF antibody is added. Following a 2 hour incubation period and a thorough washing, a chemiluminescent substrate is added and chemilunescence is read after 20 minutes. αTNF content in the supernatant fluid is determined with respect to a standard curve covering the 7000 to 0.7 pg/ml range.\nInhibition is characterized by the E. coli LPS concentration which elicits 50% production of α TNF during co-incubation in comparison to a control including only RPMI. This concentration increases as product inhibition activity becomes stronger. Knowing inhibition values of α TNF production, this concentration is given by calculating 100-(αTNF production induced by product and LPS)/(αTNF production induced by LPS alone)*100. From these inhibition data, concentration is determined by linear regression along the line segment which joins 2 LPS dilutions giving approx. 50% inhibition.\nProduct ability to inhibit α TNF production in mononuclear cells in response to LPS is further characterized by maximum inhibition. […] Results are calculated from a representative experience using all products."}, "Spleenic cells": {"test_system": "Spleenic cells", "test": "murine spleenic cell proliferation (3H-TdR take-up)", "type": "cell-based, CBA mice", "conditions": "5 μg/ml, one day of culture, positive control", "procedure": "Cell proliferation response is assessed by measuring triturated thymidine (^3H-TdR) take-up after 1 or 2 days of culture. Values reported in the table stand for the arithmetic mean±standard deviation of 4 cultures."}, "[3]": {"test_system": "Limulus Amoebocyte Lysate"}, "K562 cells": {"test_system": "K562 cells", "test": "activation of NK cell cytotoxicity against K562 target cells (LDH release)", "type": "cell-based, human", "procedure": "PBMC were recovered from buffy coats according to the procedure previously described in example 4.6. […] Cells were incubated under such conditions for 24 hours. K562 cells (human leukemia cell line, ATCC #CCL 243, 20110-2209 Manassas (Va.), U.S.A.) were maintained in culture using RPMI medium containing 10% FCS and subjected to 2 passages per week.\nIn order to make cytotoxicity measurement, PBMC and K562 cells were washed twice in HBSS and resuspended in Phenol Red-free RPMI medium containing 5% FCS. PBMC were divided into a round bottom 96-well plate so as to achieve a PBMC/target ratio of 20/1, 10/1 and 5/1 in 50 μl volume. 5000 K562 cells (target) were added in each well using 50 μl of Phenol Red-free RPMI. Final volume was 100 μl. The plate was centrifuged to promote contact then incubated at 37° C. for 4 hours.\nCytotoxicity was assayed using a non radioactive CytoTox 96 kit based on measuring LDH release during cell lysis (kit #G1780, batch #124100, Promega, Madison, Wis.) according to the supplier's instructions.\nThe percentage of cytotoxicity was calculated according to the following equation: […]"}}}
{"molecule": "(3R,9R)-3-[(R)-3-dodecanoyloxytetradecanoylamino]-4oxo-5-aza-9-[(R)-3-hydroxytetradecanoylamino]-1,10-diol 1-dihydrogenphosphate 10-(6-aminohexanoate) [OM-197-MP-AC (R, R)]", "values": [{"measurement": "Max concentration", "setting": "murine macrophage cells; concentration at maximum amplitude", "value": "> 100", "unit": "µg/mL"}, {"measurement": "EC50 conc", "setting": "murine macrophage cells; concentration corresponding to 50% of maximum amplitude", "value": "> 15.32", "unit": "µg/mL"}, {"measurement": "Min concentration", "setting": "murine macrophage cells; lowest concentration inducing a significant response", "value": 3.35, "unit": "µg/mL"}, {"measurement": "α TNF produced", "setting": "[1]; product 1 μg/ml", "value": 0, "unit": "pg/mL"}, {"measurement": "α TNF produced", "setting": "[1]; product 10 μg/ml", "value": 88, "unit": "pg/mL"}, {"measurement": "α TNF produced", "setting": "[1]; product 100 μg/ml", "value": 84, "unit": "pg/mL"}, {"measurement": "max. Inhibition", "setting": "[2]", "value": 100, "unit": "%"}, {"measurement": "50% inhibition LPS", "setting": "[2]; LPS concentration at which α TNF production is 50% of control", "value": 0.68, "unit": "µg/mL"}, {"measurement": "max. Inhibition LPS", "setting": "[2]; LPS concentration corresponding to maximum inhibition", "value": 0.0013, "unit": "µg/mL"}]}
{"molecule": "Concanavalin A [reference compound]", "values": [{"measurement": "thymidine take-up", "setting": "Spleenic cells", "value": "37.5±6.2 ×10^3 cpm"}]}
{"molecule": "B1", "values": [{"measurement": "LAL EU/mg", "setting": "[3]", "value": "<0.8", "unit": "EU/mg"}, {"measurement": "LAL ng of LPS equivalent per mg of product", "setting": "[3]", "value": "<0.064 ng of LPS equivalent per mg of product"}]}
{"molecule": "B2", "values": [{"measurement": "LAL EU/mg", "setting": "[3]", "value": 99, "unit": "EU/mg"}, {"measurement": "LAL ng of LPS equivalent per mg of product", "setting": "[3]", "value": "8.21 ng of LPS equivalent per mg of product"}]}
{"molecule": "B3", "values": [{"measurement": "% cytotoxicity", "setting": "K562 cells; Ratio PBMC:K562 5.1", "value": 17.9, "unit": "%"}, {"measurement": "Optical density at 490 nm, K562 + PBMC", "setting": "K562 cells; Ratio PBMC:K562 5.1", "value": 1.68}, {"measurement": "Optical density at 490 nm, PBMC alone", "setting": "K562 cells; Ratio PBMC:K562 5.1", "value": 0.035}, {"measurement": "% cytotoxicity", "setting": "K562 cells; Ratio PBMC:K562 10.1", "value": 29.4, "unit": "%"}, {"measurement": "Optical density at 490 nm, K562 + PBMC", "setting": "K562 cells; Ratio PBMC:K562 10.1", "value": 1.9}, {"measurement": "Optical density at 490 nm, PBMC alone", "setting": "K562 cells; Ratio PBMC:K562 10.1", "value": 0.064}, {"measurement": "% cytotoxicity", "setting": "K562 cells; Ratio PBMC:K562 20.1", "value": 39.3, "unit": "%"}, {"measurement": "Optical density at 490 nm, K562 + PBMC", "setting": "K562 cells; Ratio PBMC:K562 20.1", "value": 2.1}, {"measurement": "Optical density at 490 nm, PBMC alone", "setting": "K562 cells; Ratio PBMC:K562 20.1, stimulus 24 hours", "value": 0.101}]}
